{
  "source": "patent US20190062438A1",
  "about": "(CSL, published 2019)",
  "binders": {"B1": {"name": "9A2-VR24.29 (antibody, V domains shown)", "VH": "EVQLLESGGGLVQPGGSLRLSCAASGFTFPWYRVHWVRQAPGKGLEWVSSIRSSGGFPYYNYKVKGRFTISRDNSKNTLYLQMNSLRAEDTAVYYCARFYDSFFDIWGQGTMVTVSS", "VL": "DIQMTQSPSSVSASVGDRVTITCRASQGISSWLAWYQQKPGKAPKLLIYAASSLQSGVPSRFSGSGSGTDFTLTISSLQPEDFATYYCQQANSFPITFGQGTRLEIKR", "notes": "IgG4pK; also called 9A2-VR24.29 IgG"}, "B2": {"name": "9A2 (antibody, IgG4, V domains shown)", "VH": "B1 VH with P30S, W31H, R33H, V34M, H35L, P58T, N61A, Y62D, K63S", "VL": "B1 VL", "notes": "IgG4pK (IgG4 S241P, kappa); also called parental 9A2"}},
  "key": {"human CD131 [1]": {"target": "T1, human CD131 (human, UniProt P32927 17-897)", "T1 sequence": "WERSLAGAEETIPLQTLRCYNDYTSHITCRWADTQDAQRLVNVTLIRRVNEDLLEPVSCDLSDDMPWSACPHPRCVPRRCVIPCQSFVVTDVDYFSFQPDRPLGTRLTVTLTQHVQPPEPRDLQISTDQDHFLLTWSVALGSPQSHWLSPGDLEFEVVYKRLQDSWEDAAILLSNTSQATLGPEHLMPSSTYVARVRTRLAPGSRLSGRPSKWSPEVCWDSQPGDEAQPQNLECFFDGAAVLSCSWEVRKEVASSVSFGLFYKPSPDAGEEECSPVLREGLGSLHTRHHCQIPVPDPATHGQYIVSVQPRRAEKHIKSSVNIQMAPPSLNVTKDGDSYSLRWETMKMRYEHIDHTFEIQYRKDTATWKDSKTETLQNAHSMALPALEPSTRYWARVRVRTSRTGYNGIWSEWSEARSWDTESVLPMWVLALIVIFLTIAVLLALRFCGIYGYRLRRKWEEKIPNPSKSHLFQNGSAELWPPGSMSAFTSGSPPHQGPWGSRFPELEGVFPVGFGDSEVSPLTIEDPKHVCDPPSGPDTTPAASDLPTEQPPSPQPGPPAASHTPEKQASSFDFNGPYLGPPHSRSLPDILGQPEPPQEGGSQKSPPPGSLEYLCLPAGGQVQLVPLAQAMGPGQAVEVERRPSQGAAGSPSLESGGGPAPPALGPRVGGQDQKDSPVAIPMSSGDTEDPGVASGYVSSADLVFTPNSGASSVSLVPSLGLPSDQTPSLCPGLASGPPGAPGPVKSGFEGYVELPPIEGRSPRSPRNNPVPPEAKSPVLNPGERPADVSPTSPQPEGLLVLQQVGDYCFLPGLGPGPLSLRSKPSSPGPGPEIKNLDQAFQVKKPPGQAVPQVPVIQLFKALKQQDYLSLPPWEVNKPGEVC", "test": "cell-based or functional assay"}, "human CD131 [2]": {"target": "T1, human CD131", "test": "cell-based or functional assay", "remark": "listed apart in the source"}, "human CD131 [3]": {"target": "T1, human CD131", "test": "saturation binding of radio-iodinated IgG on human eosinophils", "experimental": "(§1) Each point is the mean of duplicate determinations of cell-bound radio-iodinated antibody after subtraction of non-specific binding. Data from a single neutrophil binding experiment and a representative eosinophil binding experiment, n=2 is shown.\n(§2) Cytokines and antibodies were radio-iodinated using Pierce Pre-Coated Iodination tubes (Thermo Scientific) according to the manufacturer's instructions. MAb binding to cells expressing hβc was determined by incubating 1-2×10⁶ cells with radio-iodinated mAb at a range of concentrations at 23° C. for 1-2 hours with gentle mixing. Cell suspensions were then centrifuged through fetal calf serum (FCS) and radioactivity associated with the cells pellets was assessed by counting in a Wizard² 2470 Automatic Gamma Counter (Perkin Elmer, Rowville, VIC, Australia). Non-specific binding was assessed for each radio-iodinated mAb in the presence of at least a 500-fold excess of unlabeled mAb. […] Competition binding assays were performed essentially as previously described (41). Briefly 1-2×10⁶ cells were incubated with mAb or cytokine competitor at a range of concentrations at 4° C. for 45 minutes with gentle mixing. […] Cell suspensions were then centrifuged through FCS and radioactivity associated with the cells pellets assessed by counting."}, "human CD131 [4]": {"target": "T1, human CD131", "test": "saturation binding of radio-iodinated IgG on human neutrophils", "experimental": "as §1, §2"}, "human CD131 [5]": {"target": "T1, human CD131", "test": "saturation binding of radio-iodinated antibody to TF1 cells (first of three values in the cell)", "experimental": "(§3) Cytokines and antibodies were radio-iodinated using Pierce Pre-Coated Iodination tubes (Thermo Scientific) according to the manufacturer's instructions. MAb binding to cells expressing hβc was determined by incubating 1-2×10⁶ cells with radio-iodinated mAb at a range of concentrations at 23° C. for 1-2 hours with gentle mixing. Cell suspensions were then centrifuged through fetal calf serum (FCS) and radioactivity associated with the cells pellets was assessed by counting in a Wizard² 2470 Automatic Gamma Counter (Perkin Elmer, Rowville, VIC, Australia). Non-specific binding was assessed for each radio-iodinated mAb in the presence of at least a 500-fold excess of unlabeled mAb. […] Competition binding assays were performed essentially as previously described (41). Briefly 1-2×10⁶ cells were incubated with mAb or cytokine competitor at a range of concentrations at 4° C. for 45 minutes with gentle mixing. Radio-iodinated cytokine or mAb was then added and the mixture incubated at 23° C. for a further 1-2 hours with gentle mixing. Cell suspensions were then centrifuged through FCS and radioactivity associated with the cells pellets assessed by counting."}, "human CD131 [6]": {"target": "T1, human CD131", "test": "saturation binding of radio-iodinated antibody to TF1 cells (third of three values in the cell)", "experimental": "as §3"}, "human CD131 [7]": {"target": "T1, human CD131", "test": "saturation binding of radio-iodinated antibody to TF1 cells (second of three values in the cell)", "experimental": "as §3"}, "human CD131 [8]": {"target": "T1, human CD131", "test": "saturation binding of radio-iodinated antibody to human eosinophils (first of two values in the cell)", "experimental": "as §1, §2"}, "human CD131 [9]": {"target": "T1, human CD131", "test": "saturation binding of radio-iodinated antibody to human eosinophils (second of two values in the cell)", "experimental": "as §1, §2"}, "human CD131 [10]": {"target": "T1, human CD131", "test": "saturation binding of radio-iodinated antibody to cells; row 'Average for all cells (±SEM)' (neutrophils, eosinophils, TF1 cells)"}, "human CD131 [11]": {"target": "T1, human CD131", "test": "competition binding on purified human eosinophils: cells pre-incubated with the antibody, then equilibrated with 340 pM radio-iodinated IL-3; cell-bound c.p.m.", "experimental": "(§4) Each point is the mean of duplicate determinations of cell-bound radioiodinated cytokine and error bars represent the standard deviation.\nas §3"}, "human CD131 [12]": {"target": "T1, human CD131", "test": "competition binding on purified human eosinophils: cells pre-incubated with the antibody, then equilibrated with 200 pM radio-iodinated IL-5; cell-bound c.p.m.", "experimental": "as §4, §3"}, "human CD131 [13]": {"target": "T1, human CD131", "test": "cell-based or functional assay", "remark": "listed apart in the source"}, "human IL-3R α-chain": {"target": "T2, human IL-3R α-chain (human, UniProt P26951 19-378)", "T2 construct": "also called Hu-IL3R α chain", "T2 sequence (P26951 19-378 limits assumed)": "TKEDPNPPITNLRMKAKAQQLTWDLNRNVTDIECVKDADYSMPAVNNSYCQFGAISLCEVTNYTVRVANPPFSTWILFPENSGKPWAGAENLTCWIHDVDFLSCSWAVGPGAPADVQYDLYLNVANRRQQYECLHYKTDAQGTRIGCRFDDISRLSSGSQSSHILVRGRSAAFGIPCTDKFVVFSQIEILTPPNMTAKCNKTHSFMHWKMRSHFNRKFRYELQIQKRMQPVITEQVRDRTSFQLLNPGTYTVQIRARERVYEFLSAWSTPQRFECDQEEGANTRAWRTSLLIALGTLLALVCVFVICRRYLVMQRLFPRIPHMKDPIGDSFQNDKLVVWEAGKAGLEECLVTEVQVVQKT", "test": "flow cytometry, transiently transfected cells"}, "human GM-CSFR α-chain": {"target": "T3, human GM-CSFR α-chain (human, UniProt P15509 23-400)", "T3 construct": "whole, on cells; also called GMRα", "T3 sequence (looked up)": "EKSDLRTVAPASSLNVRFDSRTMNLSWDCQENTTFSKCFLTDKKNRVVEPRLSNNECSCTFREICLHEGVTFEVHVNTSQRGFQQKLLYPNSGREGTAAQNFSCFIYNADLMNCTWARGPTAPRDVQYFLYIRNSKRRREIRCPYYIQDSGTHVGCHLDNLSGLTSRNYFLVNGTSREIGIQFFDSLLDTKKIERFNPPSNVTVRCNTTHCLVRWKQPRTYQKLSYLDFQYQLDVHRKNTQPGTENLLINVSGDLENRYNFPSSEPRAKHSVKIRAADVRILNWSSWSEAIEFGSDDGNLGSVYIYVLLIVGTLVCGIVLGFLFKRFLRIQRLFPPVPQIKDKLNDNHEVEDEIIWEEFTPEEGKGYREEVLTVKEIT", "test": "flow cytometry, transiently transfected cells"}, "human IL-5R α-chain": {"target": "T4, human IL-5R α-chain (human, UniProt Q01344 21-420)", "T4 construct": "also called Hu-IL5R α chain isoform 1", "T4 sequence": "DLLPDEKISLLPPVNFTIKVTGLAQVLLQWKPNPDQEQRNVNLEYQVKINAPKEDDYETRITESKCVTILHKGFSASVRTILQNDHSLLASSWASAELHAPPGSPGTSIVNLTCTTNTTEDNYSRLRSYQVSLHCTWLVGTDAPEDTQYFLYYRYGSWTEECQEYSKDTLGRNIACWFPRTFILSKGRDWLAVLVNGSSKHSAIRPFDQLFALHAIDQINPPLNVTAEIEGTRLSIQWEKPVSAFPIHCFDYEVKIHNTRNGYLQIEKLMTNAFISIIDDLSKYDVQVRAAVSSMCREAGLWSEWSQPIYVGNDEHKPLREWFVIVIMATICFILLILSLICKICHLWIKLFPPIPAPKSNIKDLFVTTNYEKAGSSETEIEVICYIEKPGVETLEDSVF", "test": "flow cytometry, transiently transfected cells"}},
  "note": "Numbering of substitutions follows the chain as printed. In names and notes the source's numbering stands. Read-outs that look alike come from different tables or passages of the source.",
  "data": [
    {"binder": "B1", "values": [
      {"measurement": "IC50 IL-3, TF-1 proliferation", "setting": "human CD131 [1]", "value": 0.144, "unit": "nM"},
      {"measurement": "IC50 IL-5, TF-1 proliferation", "setting": "human CD131 [1]", "value": 4.67, "unit": "nM"},
      {"measurement": "fold improvement of IC50 GM-CSF over parental 9A2", "setting": "human CD131 [1]", "value": 1570, "unit": "fold"},
      {"measurement": "fold improvement of IC50 IL-3 over parental 9A2", "setting": "human CD131 [1]", "value": 41, "unit": "fold"},
      {"measurement": "fold improvement of IC50 IL-5 over parental 9A2", "setting": "human CD131 [1]", "value": 310, "unit": "fold"},
      {"measurement": "IC50 GM-CSF, TF-1 proliferation", "setting": "human CD131 [2]", "value": 0.29, "unit": "nM"},
      {"measurement": "Kd", "setting": "human CD131 [3]", "value": 0.629, "unit": "nM"},
      {"measurement": "Kd", "setting": "human CD131 [4]", "value": 0.246, "unit": "nM"},
      {"measurement": "Kd", "setting": "human CD131 [5]", "value": 0.361, "unit": "nM"},
      {"measurement": "Kd", "setting": "human CD131 [6]", "value": 0.393, "unit": "nM"},
      {"measurement": "Kd", "setting": "human CD131 [7]", "value": 0.303, "unit": "nM"},
      {"measurement": "Kd", "setting": "human CD131 [8]", "value": 0.73, "unit": "nM"},
      {"measurement": "Kd", "setting": "human CD131 [9]", "value": 0.528, "unit": "nM"},
      {"measurement": "Kd", "setting": "human CD131 [10]", "value": 0.426, "unit": "nM"},
      {"measurement": "IC50 (read off the curve)", "setting": "human CD131 [11]", "value": "~7", "unit": "pM"},
      {"measurement": "IC50 (read off the curve)", "setting": "human CD131 [12]", "value": "~0.3", "unit": "nM"}
    ]},
    {"binder": "B2", "values": [
      {"measurement": "IC50 GM-CSF, TF-1 proliferation", "setting": "human CD131 [13]", "value": 456, "unit": "nM"},
      {"measurement": "IC50 IL-3, TF-1 proliferation", "setting": "human CD131 [13]", "value": 5.96, "unit": "nM"},
      {"measurement": "IC50 IL-5, TF-1 proliferation", "setting": "human CD131 [13]", "value": 1450, "unit": "nM"},
      {"measurement": "pStat5 IC50 GM-CSF, TF-1 bla reporter", "setting": "human CD131 [13]", "value": 40, "unit": "nM"},
      {"measurement": "pStat5 IC50 IL-3, TF-1 bla reporter", "setting": "human CD131 [13]", "value": 7.3, "unit": "nM"},
      {"measurement": "binding result", "setting": "human IL-3R α-chain", "value": "no binding"},
      {"measurement": "binding result", "setting": "human GM-CSFR α-chain", "value": "no binding"},
      {"measurement": "binding result", "setting": "human IL-5R α-chain", "value": "no binding"}
    ]}
  ]
}
